Results published in PMC4864350, “Fluorogenic Substrates for In Situ Monitoring of Caspase-3 Activity in Live Cells” (PLoS ONE, 2016).
Non-standard residues stand in square brackets, D forms with d. *: point of attachment. MethylRed = CN(C)c1ccc(/N=N/c2ccccc2C(=O)*)cc1; FAM = 5(6)-carboxyfluorescein; peptoid = not defined here; Ahx = NCCCCCC(=O)O

T1: caspase-3 (Homo sapiens, UniProt P42574)
T1 construct: purchased R&D systems, USA
T1 sequence (P42574 29-175 limits assumed): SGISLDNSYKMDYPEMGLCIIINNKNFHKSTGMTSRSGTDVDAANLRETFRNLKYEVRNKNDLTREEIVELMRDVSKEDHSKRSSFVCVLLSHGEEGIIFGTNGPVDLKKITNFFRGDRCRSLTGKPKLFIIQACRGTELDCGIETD
T1 sequence (P42574 176-277 limits assumed): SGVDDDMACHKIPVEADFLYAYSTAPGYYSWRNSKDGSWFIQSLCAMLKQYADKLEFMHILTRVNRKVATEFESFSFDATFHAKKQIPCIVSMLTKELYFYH

T2: caspase-7 (Homo sapiens, UniProt P55210)
T2 construct: purchased R&D systems, USA
T2 sequence (P55210 24-198 limits assumed): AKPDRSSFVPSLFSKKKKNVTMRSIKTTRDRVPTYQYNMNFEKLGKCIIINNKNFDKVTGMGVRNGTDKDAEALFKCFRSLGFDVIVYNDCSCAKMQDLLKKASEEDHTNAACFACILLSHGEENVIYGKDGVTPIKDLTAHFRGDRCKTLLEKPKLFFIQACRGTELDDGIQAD
T2 sequence (P55210 207-303 limits assumed): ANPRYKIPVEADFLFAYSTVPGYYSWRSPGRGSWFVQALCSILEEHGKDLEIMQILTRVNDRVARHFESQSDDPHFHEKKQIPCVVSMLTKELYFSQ

T3: caspase-3 (UniProt P42574)
T3 sequence: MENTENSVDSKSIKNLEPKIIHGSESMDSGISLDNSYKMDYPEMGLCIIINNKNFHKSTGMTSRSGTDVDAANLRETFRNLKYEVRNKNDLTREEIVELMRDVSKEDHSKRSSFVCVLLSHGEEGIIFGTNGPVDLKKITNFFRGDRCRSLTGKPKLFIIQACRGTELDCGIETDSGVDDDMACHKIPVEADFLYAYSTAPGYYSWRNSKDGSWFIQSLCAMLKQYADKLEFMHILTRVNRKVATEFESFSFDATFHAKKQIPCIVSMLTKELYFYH


How the values were obtained:
caspase-3 [1] = molecular target: T1, caspase-3; assay: Kinetic assay of fluorogenic substrates with caspase-3; type: biochemical; settings: substrate range 0.1–8 μM, enzyme 20 nM (1–9) or 15 nM (10–14), n = 3; for Km: fluorescence λEx/Em 485/528 nm, initial rate 0–5 min, Michaelis-Menten
Protocol: (§1) The ability of […] (bearing MR as the quencher of choice) to act as s substrate for caspase-3, as well as caspase-7, was investigated by determining the catalytic efficiency (kcat/KM) for each substrate with both enzymes (Table 2).
(§2) Caspase-3 or caspase-7 (R&D systems, USA) was added to 100 μL of caspase assay buffer with substrates 1–14 at concentrations from 0.1 μM to 8 μM in a 96-well plate (n = 3) to give final enzyme concentration of 20 nM (1–9) or 15 nM (10–14). Fluorescence (λEx/Em 485/528 nm) was recorded on a Biotek Synergy HT Multi-Mode Microplate Reader every 2 min. Control samples had the same composition but no enzyme. The rate (μM/min) was calibrated using a 5(6)-carboxyfluorescein conversion factor (0.0055 μM/RFU) and data plotted against time (min). For initial cleavage rate (0–5 min), plots were fitted using linear regression analysis and the Michaelis-Menten data generated using GraphPad Prism 5.

caspase-7 [2] = molecular target: T2, caspase-7; assay: Kinetic assay of fluorogenic substrates with caspase-7; type: biochemical; settings: substrate range 0.1–8 μM; enzyme 20 nM (1–9) or 15 nM (10–14); n = 3
Protocol: as §1, §2

caspase-3 [3] = molecular target: T1, caspase-3; assay: Caspase-3-mediated cleavage at high enzyme concentration analysed by MALDI-TOF MS; type: biochemical; settings: 10–20 μM substrate, 0.4 μM enzyme; for cleavage by caspase-3 (MALDI-TOF MS): 2 h, 37 °C; for parent compound after incubation with caspase-3: after 2h, MALDI-TOF MS
Protocol: (§3) To confirm how specific 11, 12 and 14 were for caspase-3, these substrates were incubated with high enzyme concentrations (10–20 μM substrate, 0.4 μM enzyme) and the caspase-mediated cleavage analysed by MALDI-TOF MS.
(§4) S2 Fig. (A) MALDI-TOF MS spectra of substrate 11 (sequence Asp-Ala-Pro-Asp). (B) After incubation (20 µM) with Caspase-3 for 2 h. (C) After incubation (20 µM) with Caspase-7 for 2 h (detected as the PBS adduct.)
(§5) Caspase-3 or caspase-7 (R&D systems, USA) was added to 100 µL of caspase assay buffer (final enzyme concentration 0.4 µM) with the substrates at 10–20 µM. The samples were incubated in Eppendorf Thermomixer® Comfort shaking at 1200 rpm for 2h at 37 °C. MALDI -TOF mass spectra were recorded as described in Table S1 .
(§6) (1 picture or pasted object on this page, not shown here)

caspase-7 [4] = molecular target: T2, caspase-7; assay: Caspase-7-mediated cleavage at high enzyme concentration analysed by MALDI-TOF MS; type: biochemical; settings: 10–20 μM substrate, 0.4 μM enzyme, 2 h; for cleavage by caspase-7 (MALDI-TOF MS): 37 °C; for cleavage site with caspase-7: MALDI-TOF MS
Protocol: as §3, §4, §5, §6

caspase-3 [5] = molecular target: T3, caspase-3
caspase-3 [6] = molecular target: T3, caspase-3; remark: listed apart in the source

KM of cleavage by caspase-3 (fluorogenic Michaelis-Menten kinetics, substrate 0.1-8 μM, 15 nM enzyme) (caspase-3 [5]) [µM]	KM of cleavage by caspase-3 (fluorogenic Michaelis-Menten kinetics) (caspase-3 [6]) [µM]	Molecule	Km (caspase-3 [1]) [µM]	Kcat, Caspase-3 (caspase-3 [1]) [s⁻¹]	Km (caspase-7 [2]) [µM]	kcat, Caspase-7 (caspase-7 [2]) [s⁻¹]	kcat/KM, Caspase-7 (caspase-7 [2]) [M⁻¹ s⁻¹]	cleavage by caspase-3 (MALDI-TOF MS) (caspase-3 [3])	parent compound after incubation with caspase-3 (caspase-3 [3])	cleavage by caspase-7 (MALDI-TOF MS) (caspase-7 [4])	cleavage site with caspase-7 (caspase-7 [4])	kcat/KM (catalytic efficiency), Caspase-3 (caspase-3 [1]; listed as 12) [M⁻¹ s⁻¹]	kcat/KM (catalytic efficiency), Caspase-3 (caspase-3 [1]; listed as 11) [M⁻¹ s⁻¹]
0.2	–	{FAM-Ahx}-DVPD[Ahx]K(MethylRed)-{peptoid-NH2} (reading uncertain; also: printed as Asp-Val-Pro-Asp) [fluorogenic substrate 14 (FAM-Ahx-Asp-Val-Pro-Asp-Ahx-Lys(MR)-peptoid)]	–	–	–	–	–	–	–	–	–	–	–
–	1.1	{FAM-Ahx}-DLPDK(MethylRed)-{Ahx-peptoid} (reading uncertain; also: printed as FAM-Ahx-Asp-Leu-Pro-Asp-Lys(MR)-Ahx-peptoid) [fluorogenic substrate 27 (FAM-Ahx-Asp-Leu-Pro-Asp-Lys(MR)-Ahx-peptoid)]	–	–	–	–	–	–	–	–	–	–	–

The next lines start with the molecule.

Molecule	KM of cleavage by caspase-3 (fluorogenic Michaelis-Menten kinetics, substrate 0.1-8 μM, 15 nM enzyme) (caspase-3 [5]) [µM]	KM of cleavage by caspase-3 (fluorogenic Michaelis-Menten kinetics) (caspase-3 [6]) [µM]	Km (caspase-3 [1]) [µM]	Kcat, Caspase-3 (caspase-3 [1]) [s⁻¹]	Km (caspase-7 [2]) [µM]	kcat, Caspase-7 (caspase-7 [2]) [s⁻¹]	kcat/KM, Caspase-7 (caspase-7 [2]) [M⁻¹ s⁻¹]	cleavage by caspase-3 (MALDI-TOF MS) (caspase-3 [3])	parent compound after incubation with caspase-3 (caspase-3 [3])	cleavage by caspase-7 (MALDI-TOF MS) (caspase-7 [4])	cleavage site with caspase-7 (caspase-7 [4])	kcat/KM (catalytic efficiency), Caspase-3 (caspase-3 [1]; listed as 12) [M⁻¹ s⁻¹]	kcat/KM (catalytic efficiency), Caspase-3 (caspase-3 [1]; listed as 11) [M⁻¹ s⁻¹]
substrate 14: FRET fluorogenic substrate, recognition Asp-Val-Pro-Asp, quencher MR, C-terminal peptoid ({FAM-Ahx}-DVPD[Ahx]K(MethylRed)-{peptoid-NH2}; reading uncertain; also: printed as Asp-Val-Pro-Asp)	–	–	0.2 ± 0.04	0.0283 ± 0.0017	3.6 ± 0.9	0.0233 ± 0.0033	6700	cleaved by caspase-3 at the X1 position	no longer detected	(partially) cleaved by caspase-7	between the Ahx spacer and the Lys(MR)	–	–
substrate 12: FRET fluorogenic substrate, recognition Asp-Leu-Pro-Asp, quencher MR, C-terminal peptoid ({FAM-Ahx}-DLPD[Ahx]K(MethylRed)-{peptoid-NH2}; reading uncertain; also: printed as Asp-Leu-Pro-Asp)	–	–	0.2 ± 0.1	0.0233 ± 0.0033	1.4 ± 0.3	0.015 ± 0.0012	12000	cleaved by caspase-3 at the X1 position	no longer detected	(partially) cleaved by caspase-7	between the Ahx spacer and the Lys(MR)	96700	–
substrate 11: FRET fluorogenic substrate, recognition Asp-Ala-Pro-Asp, quencher MR, C-terminal peptoid ({FAM-Ahx}-DAPD[Ahx]K(MethylRed)-{peptoid-NH2}; reading uncertain; also: printed as Asp-Ala-Pro-Asp)	–	–	0.4 ± 0.1	0.0217 ± 0.0017	4.9 ± 2.1	0.0267 ± 0.005	5000	cleaved by caspase-3 at the X1 position	no longer detected	(partially) cleaved by caspase-7	between the Ahx spacer and the Lys(MR)	–	56700
{FAM-Ahx}-DAPD[Ahx]K(MethylRed)-{peptoid-NH2} (reading uncertain; also: printed as Asp-Ala-Pro-Asp) [fluorogenic substrate 11 (FAM-Ahx-Asp-Ala-Pro-Asp-Ahx-Lys(MR)-peptoid)]	0.4	–	–	–	–	–	–	–	–	–	–	–	–
{FAM-Ahx}-DLPD[Ahx]K(MethylRed)-{peptoid-NH2} (reading uncertain; also: printed as FAM-Ahx-Asp-Leu-Pro-Asp-Ahx-Lys(MR)-peptoid) [fluorogenic substrate 12 (FAM-Ahx-Asp-Leu-Pro-Asp-Ahx-Lys(MR)-peptoid)]	0.2	–	–	–	–	–	–	–	–	–	–	–	–
